# Laboratory results as given in patent US12527847B1, “Compositions and methods for reducing blood ethanol concentration through alcohol dehydrogenase and acetaldehyde scavengers” (Goa Therapeutics Corporation, priority 2025, dated 2026).
# B1: ADH: ADH purified from Saccharomyces cerevisiae (500 U/mg protein), SEQ ID NO: 1 (protein, listed as Saccharomyces cerevisiae)
# chain: MSTAVAVLTSNADTDIFAKPVAGVDGSHVIDAAAVFGLGKETVVDALKDYKTGATTPAVAQKLGVEGAKALVGVPQKVESNDFFVAKAKDAGTEVIVGGMGGVGLSAIGASLKPGYELDKAKIEVASKLAAGAKVTVITPQCGHEVIVGVPPDSQNLSMRIAQLGGKSPFTKEKDLNYFAVEKAKELGATGSKIINLIMGKVMPEGQKIHLGHEIVGDLGVVTKDAASGKLPIISIGHEAVKNAVKVLENAELEGLTKEGAKVTVVGNPQIYSDDHVAVAGTSLSTLNKLLDAIKKADTSKPIQEVLSDKAKEVGIEEGLMTTVHAITGAAGAASALPFGVTAAL
# Tests used:
# [1] = In vitro reduction of EtOH by ADH and AcH scavengers (NAD/NADH-based enzymatic assay, 340 nm); assay type: biochemical; conditions: 200 U ADH, 455 mg scavenger mixture, pH 7.4, 37° C., 30 minutes
# Procedure: (§1) An in vitro study was conducted to evaluate the effect of a combined formulation of ADH and AcH scavengers on the reduction of EtOH and AcH concentrations. The study was designed to assess the enzymatic conversion of EtOH to AcH by ADH and the subsequent removal of AcH by scavengers. The experiment was performed using enzyme preparation from yeast (Saccharomyces cerevisiae).
# (§2) The following materials and reagents were used: EtOH 99.9% pure, analytical grade and ADH purified from Saccharomyces cerevisiae (500 U/mg protein) (SEQ ID NO: 1, see Table 1). AcH scavenger-containing composition (total 455 mg): Thiamine hydrochloride (Vitamin B1): 100 mg; Glutathione (GSH): 15 mg; NAC (N-Acetyl-Cysteine) OR L-Cysteine: 200 mg; α-Lipoic acid: 40 mg; Pyridoxine hydrochloride (Vitamin B6): 100 mg and buffer Solution: 100 mM sodium phosphate buffer, pH 7.4.
# (§3) The experiment was conducted in triplicate with appropriate controls to ensure reproducibility. […]
# (§4) EtOH concentration was measured using a NAD/NADH-based enzymatic assay with a spectrophotometer at 340 nm. AcH concentration was measured using a modified Hantzsch reaction assay, which detects AcH at 412 nm.
# [2] = In vitro AcH concentration after ADH and AcH scavengers (modified Hantzsch reaction assay, 412 nm); assay type: biochemical; conditions: 100 mM EtOH start, 200 U ADH, 455 mg scavenger mixture, pH 7.4, 37° C., 30 minutes
# Procedure: as §1, §2, §3, §4
# [3] = In vivo blood EtOH concentration in rodents after oral EtOH; set-up: species or system Sprague-Dawley rats; conditions: rat blood, 2 g/kg EtOH oral, ADH 600 U/kg IP
# Procedure: The study was performed to evaluate the efficacy of a combined formulation of ADH and AcH scavengers in reducing blood EtOH and AcH concentrations in an in vivo rodent model.
# 12 male Sprague-Dawley rats (200 to 250 g), housed under standard conditions (12-hour light/dark cycle, 22±2° C.) were administered with 2 g/kg EtOH orally via gavage.
# Groups (n=3): Group 1 (Control): EtOH only (no ADH or scavengers). Group 2: EtOH+ADH (600 U/kg, intraperitoneally). Group 3: EtOH+AcH scavenger-containing composition. Group 4 (Combined): EtOH+ADH (600 U/kg, IP)+AcH scavenger-containing composition.
# Blood samples were collected from the tail vein at 0, 15, 30, 60, and 120 minutes post-EtOH administration. EtOH concentration was measured using a NAD/NADH-based enzymatic assay.
# [4] = system: ADH purified from Saccharomyces cerevisiae; test: Enzyme kinetics of ADH with AcH scavengers (Michaelis-Menten, NADH production at 340 nm); assay type: biochemical; conditions: pH 7.4, 37° C., 5 min incubation
# Procedure: ADH purified from Saccharomyces cerevisiae (500 U/mg protein) was used. EtOH Concentrations: 5, 10, 20, 50, 100, 200 mM. Reaction Volume: 1 mL with 100 mM sodium phosphate buffer (pH 7.4). 37° C., 5 min incubation. NADH production measured at 340 nm using a spectrophotometer. Two groups: a) control ADH+EtOH; and b) ADH+EtOH+AcH scavenger mixture.
# ADH = test: Stability and degradation profile of ADH in the presence of AcH scavengers over time; assay type: physicochemical, Saccharomyces cerevisiae; conditions: 37° C., gentle shaking
# Procedure: Conditions: 37° C. for up to 60 min with gentle shaking (100 rpm), ADH activity assessed via NADH production (340 nm). AcH scavenger-containing composition (total 455 mg): Thiamine hydrochloride (Vitamin B1): 100 mg; Glutathione (GSH): 15 mg; NAC (N-Acetyl-Cysteine) OR L-Cysteine: 200 mg; α-Lipoic acid: 40 mg; Pyridoxine hydrochloride (Vitamin B6): 100 mg and buffer Solution: 100 mM sodium phosphate buffer, pH 7.4.
# HepG2 Liver Cells [5] = test: HepG2 cell viability under EtOH exposure (MTT assay); assay type: cell-based; conditions: HepG2, 100 mM EtOH for 24 hours
# Procedure: (§5) Cells were exposed to 100 mM EtOH for 24 hours. Group 1 (Control): EtOH only; Group 2: EtOH+ADH; Group 3: EtOH+AcH scavenger-containing composition; and Group 4 (Combined): EtOH+ADH+AcH scavenger-containing composition.
# (§6) Cell viability was detected by MTT assay (absorbance at 570 nm). ROS (Reactive Oxygen Species) was detected by DCFH-DA assay (fluorescence at 488 nm).
# HepG2 Liver Cells [6] = test: HepG2 ROS under EtOH exposure (DCFH-DA assay); assay type: cell-based; conditions: HepG2, 100 mM EtOH for 24 hours
# Procedure: as §5, §6
molecule,measurement,setting,value
B1,EtOH Final,[1]; 100 mM EtOH start,85.8 mM
same,EtOH Reduction (%),"[1]; 100 mM EtOH, 1 mL",14.2%
same,AcH Final,[2],235 µM
same,EtOH concentration (% of control),[3]; 0 min,95 % of control
same,EtOH concentration (% of control),[3]; 15 min,85.2 % of control
same,EtOH concentration (% of control),[3]; 30 min,75.8 % of control
same,EtOH concentration (% of control),[3]; 60 min,68 % of control
same,EtOH concentration (% of control),[3]; 120 min,44.8 % of control
same,Vmax,[4]; EtOH 5-200 mM,105.2 µmol/min
same,kcat,[4]; EtOH 5-200 mM,105.2
same,Km,[4]; substrate EtOH 5-200 mM,32.5 mM
same,ADH activity (% of t = 0),ADH; 30 min,87 % of t = 0
same,ADH activity (% of t = 0),ADH; 60 min,62 % of t = 0
same,Cell viability (%),HepG2 Liver Cells [5]; MTT,67.1%
same,Overall Impact on Viability (in words),HepG2 Liver Cells [5]; results interpretation,Viability increases
same,ROS (% of control),"HepG2 Liver Cells [6]; DCFH-DA, control = EtOH only",85.6 % of control
same,ROS Impact (in words),HepG2 Liver Cells [6]; results interpretation,Moderate ROS
